B1: anti-Siglec-7 antibody 7E11 (antibody, V domains shown)
VH: QVQLKQSGPVLVAPSQSLSITCTVSGFSLSNYGVHWVRQFPGKGLEWLGVIWAGGITNYNSVLMSRLSISKDNSKSQVFLKMNSLQTDDTAMYYCAKQGGTSFSYWGQGTLVTVSA
VL: DIQMTQSPASQSASLGESVTITCLASQTIGTWLAWYQQKPGKSPQLLIYAATSLADGVPSRFSGSGSGTKFSFKISSLQAEDFVSYYCQQLYSTPYTFGGGTKLEIK
notes: Variable domains assembled from FR and CDR entries
B2: anti-Siglec-7 antibody 1A12 (antibody, V domains shown)
VH: QVQLQQSGSELRSPGSSVKLSCKDFDSEVFPITYMNWVRQKPGHGFEWIGDILPSIGRTMYGEKFEDKATLDADTVSNTAYLELNSLTSEDSAIYYCARSEGYLLAYWGQGTLVTVSA
VL: DVZMTQTPLSLPVSLGDQASISCRSSQSLVHSTGNTYLHWYLQKPGQSPKLLIYKVSNRFSGVPDRFSGSGAGTDFTLKISRVEAEDLGVYFCSQNTHVPYTFGGGTKLEIK
notes: also called 1Al2
B3: anti-Siglec-7 antibody 4D7 (antibody, V domains shown)
VH: QVQLQQSGAELVKPGASVKLSCKTSGYTFTNYWINWVKQRPGQGLEWIGNIYSGSSRTNYNEKFKSKATLTVDTSSSTAYMQLSSLTSDDSAVYYCAREGLRAMDYWGQGTSVTVSS
VL: NZMTQFQKFMSTSVGDRVSLTCKASQKVGTNVAGFQQKPGHSPKAGIYSASTRHRGVQDRFTARGLGSDFILPITTZQLEDLAEYZCHQGNSVQYTFGGGTKLEIK
notes: as for B1

Tests used:
[1] = molecular target: human Siglec-7 expressed on human cells (primary monocytes, dendritic cells, macrophages, NK cells, microglia, U937 cells, human cells of humanized mice) (human) (UniProt Q9Y286); experiment: FACS, human primary dendritic cells; isotype control (background)
human Siglec-7 expressed on human cells (primary monocytes, dendritic cells, macrophages, NK cells, microglia, U937 cells, human cells of humanized mice) (human), sequence (Q9Y286 19-467): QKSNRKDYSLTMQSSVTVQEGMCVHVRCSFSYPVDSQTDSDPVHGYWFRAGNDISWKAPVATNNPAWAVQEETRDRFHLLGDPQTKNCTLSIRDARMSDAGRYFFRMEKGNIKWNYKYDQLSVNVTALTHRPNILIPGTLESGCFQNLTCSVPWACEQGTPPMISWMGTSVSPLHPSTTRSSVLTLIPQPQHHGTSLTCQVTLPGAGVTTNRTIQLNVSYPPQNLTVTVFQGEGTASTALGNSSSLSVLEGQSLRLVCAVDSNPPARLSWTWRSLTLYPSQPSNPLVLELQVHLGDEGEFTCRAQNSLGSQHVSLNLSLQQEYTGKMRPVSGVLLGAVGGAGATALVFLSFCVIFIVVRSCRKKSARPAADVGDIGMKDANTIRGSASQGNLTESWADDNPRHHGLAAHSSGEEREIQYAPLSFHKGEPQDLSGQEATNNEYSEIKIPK

[2] = molecular target: human Siglec-7 expressed on human cells (primary monocytes, dendritic cells, macrophages, NK cells, microglia, U937 cells, human cells of humanized mice) (human) (UniProt Q9Y286); experiment: cell-based or functional assay
[3] = molecular target: human Siglec-7 expressed on human cells (primary monocytes, dendritic cells, macrophages, NK cells, microglia, U937 cells, human cells of humanized mice) (human) (UniProt Q9Y286); experiment: FACS, human primary macrophages; isotype control (background)
[4] = molecular target: human Siglec-7 expressed on human cells (primary monocytes, dendritic cells, macrophages, NK cells, microglia, U937 cells, human cells of humanized mice) (human) (UniProt Q9Y286); experiment: FACS, human primary monocytes; isotype control (background)
[5] = molecular target: T1, Histidine-tagged human Siglec-7 (NovoProtein) (human, UniProt Q9Y286 19-357, limits assumed); experiment: SPR (BiaCore T200, 25 C), antibody captured on anti-mouse IgG, Siglec-7-His 100 nM, single-concentration kinetics
T1 construct: Bought protein; also called purified Siglec-7-his tagged protein; not shown: histidine tag
T1 sequence (Q9Y286 19-357 limits assumed): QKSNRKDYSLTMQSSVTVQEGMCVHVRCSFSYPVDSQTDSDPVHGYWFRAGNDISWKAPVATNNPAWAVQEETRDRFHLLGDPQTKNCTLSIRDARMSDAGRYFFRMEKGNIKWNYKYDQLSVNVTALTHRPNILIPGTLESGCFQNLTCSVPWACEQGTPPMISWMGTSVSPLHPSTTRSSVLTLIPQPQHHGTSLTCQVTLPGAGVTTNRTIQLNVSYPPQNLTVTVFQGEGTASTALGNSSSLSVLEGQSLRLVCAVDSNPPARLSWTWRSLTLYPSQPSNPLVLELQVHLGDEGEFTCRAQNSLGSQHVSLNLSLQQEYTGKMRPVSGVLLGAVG
Experimental: SPR data was collected at a rate of 10 Hz at 25′ C on a BiaCore T200 instrument. Data analysis was performed using BiaCore T200 Evaluation Software, version 2.0. HBS-EP+ (100 mM HEPES, 1.5 M NaCl, 30 mM EDTA, 0.5% v/v Surfactant P20, pH 7.4) was used as running buffer and for preparing reagents.
Mouse-derived antibodies (25 nM) against Siglec-7 were captured (60 s contact time, 30 μL/min flow rate, 0 s stabilization time) on a CM5 sensor chip (GE Healthcare) immobilized with anti-mouse IgG. Histidine-tagged human Siglec-7 (NovoProtein) was then flowed over the captured anti-Siglec-7 surface (120 s contact time, 30 μL/min flow rate, 300 s dissociation time). Concentration of antigen ranged from 5 nM to 100 nM, depending on information obtained from an initial screen. Duplicate single-concentration trials were performed and bracketed by a blank (0 nM antigen) sample. The chip surface was regenerated in between cycles using 10 mM glycine-HCl, pH1.7 (60 s contact time, 30 μL/min flow rate, 60 s stabilization time). The resulting SPR signal was obtained as the difference in response from measurements performed on a blank flow cell.
Affinity constants (KD) were calculated from the ratio kd/kₐ. For one antibody (clone 1E8), we validated the single-concentration analysis with a multiple-concentration approach (five concentrations of antigen used, plus one blank).

[6] = molecular target: T2, human Siglec-7 expressed on human cells (primary monocytes, dendritic cells, macrophages, NK cells, … (human, UniProt Q9Y286 19-467)); experiment: cell-based or functional assay
T2 sequence (Q9Y286 19-467): as the sequence (Q9Y286 19-467) above

[7] = molecular target: T2, human Siglec-7 expressed on human cells …; experiment: FACS, human primary dendritic cells, 10 ug/ml mAb
Experimental: (§1) Initial characterization of Siglec-7 antibodies involved determining their ability to bind Siglec-7 expressed on human primary monocytes, human primary macrophages, human primary dendritic cells, human primary neutrophils, and human primary natural killer (NK) cells. Cells were harvested, plated at 10⁶/ml in a 96 well plate, and incubated in 100 ul PBS containing 2% FBS, 2 mM EDTA and 10 μg/ml Mab and Fc blocking reagent for 1 hour in ice. Cells were washed twice and incubated in 100 ul PBS containing 2% FBS, 2 mM EDTA and 5 ug/ml PE-conjugated secondary antibody for 30 minutes on ice. Cells were washed twice in cold PBS and analyze by flow cytometry on a BD FACS Canto. Data analysis and calculation of MFI values was performed with FlowJo (TreeStar) software version 10.0.7.
(§2) Percent positive binding and mean fluorescent intensity (MFI) values for cell types bound by Siglec-7 antibodies are listed in Table 4A. Binding is compared to an isotype control. The antibodies bind to human primary monocytes, human primary dendritic cells, and human primary macrophages. In Table 4A, “Buffer” refers to cells that were treated only with the PBS buffer described supra; “Secondary Ab” refers to cells that were treated only with the PE-conjugated secondary antibody; “mIgG1,” “mIgG2a,” and “mIgG2b” refer to isotype control antibodies; and “RDS7” refers to commerically available anti-Siglec-7 antibody Mab1138 (R&D Systems; Cat. No. MAB 1138).

[8] = molecular target: T3, Siglec-7-Fc (plate immobilized) (human, UniProt Q9Y286 19-357, limits assumed); experiment: RBC solid adhesion assay, plate-coated Siglec-7-Fc, antibody 0.5 or 1.0 ug/ml; % of RBC binding without antibody
T3 construct: also called Siglec-7-Fc protein; immobilized Siglec-7; not shown: Fc part
T3 sequence (Q9Y286 19-357 limits assumed): as the sequence (Q9Y286 19-357 limits assumed) above
Experimental: To determine which antibodies compete with ligand binding to Siglec-7, a red blood cell (RBC) solid adhesion assay was carried out in accordance with standard protocols (Kelm et al., Current Biology, 1994). Red blood cells are highly decorated with glycoproteins containing sialic acids: therefore, the ability of an antibody to block RBC binding to immobilized Siglec-7 can be used to determine ligand interference. Briefly, 5 μg/ml Siglec-7-Fc was coated overnight at RT in 96 well Immunolon plates, then washed with PBS, blocked for one hour with binding buffer (PBS containing %0.25 BSA 1 mM CaCl₂), Siglec-7 antibodies (0.5 μg/ml or 1.0 μg/ml) were bound for one hour at RT with gentle rocking. After removal of unbound antibody, red blood cells were added to each well at a concentration of 3.0×10⁶ cells per ml and incubated at RT for one hour. Unbound RBCs were then carefully washed off 3× with PBS, and water was added to each well for hypotonic lysis of bound RBCs. The plate was transferred to −80° C. for 10 minutes, followed by 37° C. for 15 minutes. Bound RBCs were detected by peroxidase activity, followed by 2N sulfuric acid to stop the reaction. Signal was detected at […]. Data was calculated as a percent of RBC binding to plate bound Siglec-7-Fc in the absence of antibody.

[9] = molecular target: T2, human Siglec-7 expressed on human cells …; experiment: FACS, human primary macrophages, 10 ug/ml mAb
Experimental: as §1, §2

[10] = molecular target: T2, human Siglec-7 expressed on human cells …; experiment: cell-based or functional assay; remark: listed apart in the source
[11] = molecular target: T2, human Siglec-7 expressed on human cells …; experiment: FACS, human primary monocytes, 10 ug/ml mAb
Experimental: as §1, §2

Molecule	Kd [5]	Percent Siglec-7 Surface Expression, Macrophages [6]	Percent Siglec-7 Surface Expression, Microglia [6]	Percent Siglec-7 Surface Expression, NK cells [6]	% Positive [7]	MFI [7]	Percent RBC Binding to Siglec-7 [8]	% Positive [9]	MFI [9]	Percent Siglec-7 Surface Expression, DCs [10]	Percent Siglec-7 Surface Expression, Monocytes [10]	Percent Siglec-7 Surface Expression, U937 cells [10]	% Positive [11]	MFI [11]	other results
mIgG2a isotype control antibody															% Positive [1]: 4.5%; MFI [1]: 134; Percent Siglec-7 Surface Expression, DCs [2]: 100%; Percent Siglec-7 Surface Expression, Macrophages [2]: 100%; Percent Siglec-7 Surface Expression, Microglia [2]: 84.2%; Percent Siglec-7 Surface Expression, Monocytes [2]: 99.4%; Percent Siglec-7 Surface Expression, NK cells [2]: 101%; Percent Siglec-7 Surface Expression, U937 cells [2]: 99.8%; % Positive [3]: 35.8%; MFI [3]: 648; % Positive [4]: 14%; MFI [4]: 141
B1	9.5 nM	5.7%	11.5%	50.7%	98.4%	845	89.3%	99.8%	2380	19.3%	8.1%	75.2%	93.3%	278	
B2	0.6 nM	13.4%	28.6%	136%	99.7%	6090	16.5%	99.4%	15800	100%	39.9%	87.3%	99.3%	505	
B3	2.9 nM	24.1%	44.3%	87.6%	26.1%	250	96.5%	99.4%	4260	73.3%	33.9%	84.7%	90.5%	262	

— US20200277374A1 (Alector, published 2020)
